Consider 21 molecules from PMC3981819, “Signaling Properties and Pharmacological Analysis of Two Sulfakinin Receptors from the Red Flour Beetle, Tribolium castaneum” (PLoS ONE, 2014).

The test system of one assay is Trica-SKR1. Briefly: Aequorin-luminescence assay, CHO-WTA11 cells (Gα16) transfected with Trica-SKR1. The assay is classed as cell-based, Tribolium castaneum. The conditions noted are these: peptide at 1 μM, aequorin bioluminescence, relative to sTrica-SK(5–13) at 1 μM = 100%, at least three biological repeats, each in duplicate. Here is the method:
(§1) General pharmacological studies were performed in Chinese Hamster Ovary (CHO) WTA11 cells, stably coexpressing apoaequorin, a zeocin resistance gene and the promiscuous Gα16, which couples most agonist-induced GPCRs to the phospholipase C and Ca^2+ pathway irrespective of their natural signaling cascade. CHO-PAM28 cells stably expressing apoaequorin and a puromycin resistance gene but not Gα16 and HEK293T cells (Invitrogen) were used to determine possible effects on Ca^2+ and/or cAMP second messenger systems, respectively. All cell lines were cultured in Dulbecco’s Modified Eagles Medium nutrient mixture F12-Ham (DMEM/F12; Invitrogen) supplemented with 1% penicillin/streptomycin (10000 units/ml penicillin and 10 mg/ml streptomycin in 0.9% NaCl; Invitrogen) to prevent bacterial contamination of gram-positive and gram-negative bacteria. In CHO-WTA11 culture medium 250 μg/ml zeocin (Invitrogen) was added as a selection marker, while CHO-PAM28 culture medium was supplemented with 5 μg/ml puromycin to select cells stably expressing apoaequorin. All cell culture media were supplemented with 10% fetal bovine serum (inactivated at […]; Sigma-Aldrich).
(§2) Cells were cultured in vitro as a monolayer at 37°C with a constant supply of 5% CO2 and were subcultivated twice a week. Transfections of cells were performed in T75 flasks at 60–80% confluency. Transfection reagent for CHO cells was prepared by combining 3.75 ml Opti-MEM I (Invitrogen), 7.5 μg plasmid DNA and 18.75 μl of Plus Reagent (Invitrogen). After gently mixing and 5 min incubation at room temperature 45 μl of Lipofectamine LTX was added to the mixture. This transfection medium was incubated for 30 min at room temperature and added dropwise to the cells, supplemented with 3 ml of fresh culture medium. HEK 293T cells were cotransfected with a receptor construct (6 μg) and CRE-luciferase reporter construct (3 μg), consisting of the open reading frame of the luciferase gene, downstream of a multimerized cAMP-response-element (CRE) and promoter. After transfection, cells were grown overnight before an additional 20 ml of culture medium was supplemented. Cells were again incubated overnight for a final growth phase before luminescence screens were performed.
(§3) The aequorin luminescence assay was used to measure Ca^2+ signaling in CHO cell lines. Cells were detached using phosphate buffered saline (PBS) containing 0.2% EDTA and collected in 10 ml of DMEM/F-12 (without phenol red, with L-glutamine and 10 mM HEPES; Gibco). The viable cells were quantified using a NucleoCounter NC-100 (Chemometic). Cells were pelleted by 4 min centrifugation at 800 rpm at room temperature and resuspended in DMEM/BSA (DMEM/F-12 without phenol red, with L-glutamine and 10 mM HEPES, 0.1% bovine serum albumin) at a concentration of 5×10^6 cells/ml. Cells were then shielded from light and Coelenterazine H (Invitrogen) was added at a final concentration of 5 μM. Cells were gently shaken at room temperature for 4 h under dark conditions, allowing the aequorin holoenzyme to be reconstituted. After a 10-fold dilution in DMEM/BSA, cells were incubated another 30 min under the same conditions. Pharmacological ligands were dissolved in DMEM/BSA and 50 μl of ligand was added to wells of a 96-well plate. Wells containing 50 μl of DMEM/BSA were used as a negative control, while wells containing 1 μM of ATP served as positive control. Incubated cells were added to the wells of the 96-well plate and light emission was measured for 30 s using a Mithras LB940 (Berthold Technologies). After 30 s Triton X-100 (0.2% in DMEM/BSA) was added, lysing the cells and thus serving as an internal reference. Light emission was measured for an additional 8 s after Triton X-100 was introduced in the wells. Light emission from each well was calculated relative to the total response (ligand+Triton X-100) using the output file of Mikrowin2000 software (Mikrotek). Further analysis was done in Graphpad Prism 5.

The subject of another assay is Trica-SKR2. Briefly: Aequorin-luminescence assay, CHO-WTA11 cells (Gα16) transfected with Trica-SKR2. The assay is classed as cell-based, Tribolium castaneum. The conditions noted are these: peptide at 1 μM, aequorin bioluminescence, relative to sTrica-SK(5–13) at 1 μM = 100%, at least three biological repeats, each in duplicate. Here is the method:
as §1, §2, §3

Assay [1] addresses Tribolium castaneum sulfakinin receptor 1 (T. castaneum).
Assay [2] concerns the target Tribolium castaneum sulfakinin receptor 2 (T. castaneum).

Square brackets hold non-standard residues; d marks the D form. Ends that are not written are not given here. sY = N[C@@H](Cc1ccc(OS(=O)(=O)O)cc1)C(=O)O; pGlu = O=C1CC[C@@H](C(=O)O)N1

As for “SPVDY(SO3H)DRPIMAFa [1567[φ1]wp-5, sulfated neuropeptide derived from C. elegans nlp-13]”, the “% Trica-SKR1 (relative activation)” value with Trica-SKR1 turned out to be 23.6%. The “% Trica-SKR2 (relative activation)” value with Trica-SKR2 was determined as 33.7%.
In the case of “GHMRFa [2053[φ1]wp-4, truncated nonsulfated SK analog]”, in the assay on Trica-SKR1, the “% Trica-SKR1 (relative activation)” value was 13.3%. The “% Trica-SKR2 (relative activation)” value with Trica-SKR2 is 44.6%.
For “FDDYGHARFa [2005[φ1]wp-3, alanine scan analog of nsTrica-SK]”, the “% Trica-SKR1 (relative activation)” value with Trica-SKR1 stood at 5.1%. The “% Trica-SKR2 (relative activation)” value in the assay on Trica-SKR2 is 11.1%.
“YGHMRFa [2011[φ1]wp-1, truncated nonsulfated SK analog]”: the “% Trica-SKR1 (relative activation)” value in the assay on Trica-SKR1 is reported as 26.3%. Moreover, the “% Trica-SKR2 (relative activation)” value in the assay on Trica-SKR2 was 21.2%.
On to DDYGHMRF-NH2 (ends and bridges not checked) [2009[φ1]wp-1], for which the aequorin bioluminescence in CHO-WTA11 cells transfected with the receptor, peptide at 1 μM, % of the response to 1 μM sTrica-SK(5–13) in assay [1] is 27.2%; in assay [2] it was 17.1%.
Consider FDDYGAMRF-NH2 [2006[φ1]wp-1], for which the results for the aequorin bioluminescence in CHO-WTA11 cells transfected with the receptor, peptide at 1 μM, % of the response to 1 μM sTrica-SK(5–13) in assay [1] and in assay [2] were 2.3% and 3.5%, respectively.
Consider FDDYGHMAF-NH2 [2004[φ1]wp-1], for which the aequorin bioluminescence in CHO-WTA11 cells transfected with the receptor, peptide at 1 μM, % of the response to 1 μM sTrica-SK(5–13) in assay [1] came out at 5.9%; in assay [2] it was 7.3%.
On to FDDYGHMRF-NH2 [nonsulfated Trica-SK(5–13)], for which the aequorin bioluminescence in CHO-WTA11 cells transfected with the receptor, peptide at 1 μM, % of the response to 1 μM sTrica-SK(5–13) in assay [1] worked out at 29.9%; in assay [2] it was 23.5%.
Regarding FDDYAHMRF-NH2 (ends and bridges not checked) [2007[φ1]wp-1], the values for the aequorin bioluminescence in CHO-WTA11 cells transfected with the receptor, peptide at 1 μM, % of the response to 1 μM sTrica-SK(5–13) in assay [1] and in assay [2] were 30.6% and 25.6%, respectively.
For FDDYGHARF-NH2 [2005[φ1]wp-3], the results for the aequorin bioluminescence in CHO-WTA11 cells transfected with the receptor, peptide at 1 μM, % of the response to 1 μM sTrica-SK(5–13) in assay [1] and in assay [2] were 5.1% and 11.1%, respectively.

B1: nsLocmi-SK (peptide)
peptide: [pGlu]LASDDYGHMRF-NH2
SMILES: CSCC[C@H](NC(=O)[C@H](Cc1c[nH]cn1)NC(=O)CNC(=O)[C@H](Cc1ccc(O)cc1)NC(=O)[C@H](CC(=O)O)NC(=O)[C@H](CC(=O)O)NC(=O)[C@H](CO)NC(=O)[C@H](C)NC(=O)[C@H](CC(C)C)NC(=O)[C@@H]1CCC(=O)N1)C(=O)N[C@@H](CCCNC(=N)N)C(=O)N[C@@H](Cc1ccccc1)C(N)=O
Take B1: the aequorin bioluminescence in CHO-WTA11 cells transfected with the receptor, peptide at 1 μM, % of the response to 1 μM sTrica-SK(5–13) in assay [1] was determined as 22.2%; in assay [2], 18.2%.
The like results for FDDYGHMRA-NH2 [2003[φ1]wp-2] were, in that order, 8.2% and 15.6%.
For the molecule FDDAGHMRF-NH2 [2008[φ1]wp-2], the aequorin bioluminescence in CHO-WTA11 cells transfected with the receptor, peptide at 1 μM, % of the response to 1 μM sTrica-SK(5–13) in assay [1] was 10.1%; in assay [2], 12.1%.
GHMRF-NH2 [2053[φ1]wp-4]: the results for the aequorin bioluminescence in CHO-WTA11 cells transfected with the receptor, peptide at 1 μM, % of the response to 1 μM sTrica-SK(5–13) in assay [1] and in assay [2] were 13.3% and 44.6%, respectively.
For DYGHMRF-NH2 (ends and bridges not checked) [2010[φ1]wp-1], the aequorin bioluminescence in CHO-WTA11 cells transfected with the receptor, peptide at 1 μM, % of the response to 1 μM sTrica-SK(5–13) in assay [1] turned out to be 7.6%; in assay [2], 8.6%.
As to FDDYGHMR-NH2 (ends and bridges not checked) [2076[φ1]wp-2], the figures for the aequorin bioluminescence in CHO-WTA11 cells transfected with the receptor, peptide at 1 μM, % of the response to 1 μM sTrica-SK(5–13) in assay [1] and in assay [2] were 25.8% and 19.7%, respectively.
On the same counts, the results for SPVDYDRPIMAF-NH2 [1432-2[φ]wp-6] are 16.4% and 11.2%.

B2: 1569[φ2]wp-4 (peptide)
peptide: PVD[sY]DRPIMAF-NH2
modifications: N-terminus assumed
SMILES: CC[C@H](C)[C@H](NC(=O)[C@@H]1CCCN1C(=O)[C@H](CCCNC(=N)N)NC(=O)[C@H](CC(=O)O)NC(=O)[C@H](Cc1ccc(OS(=O)(=O)O)cc1)NC(=O)[C@H](CC(=O)O)NC(=O)[C@@H](NC(=O)[C@@H]1CCCN1)C(C)C)C(=O)N[C@@H](CCSC)C(=O)N[C@@H](C)C(=O)N[C@@H](Cc1ccccc1)C(N)=O
In the case of B2, the aequorin bioluminescence in CHO-WTA11 cells transfected with the receptor, peptide at 1 μM, % of the response to 1 μM sTrica-SK(5–13) in assay [1] is 6.2%; in assay [2], 13.4%.
On the same counts, the results for YGHMRF-NH2 (ends and bridges not checked) [2011[φ1]wp-1] are 26.3% and 21.2%.
For the molecule HMRF-NH2 [2052[φ1]wp-3], the aequorin bioluminescence in CHO-WTA11 cells transfected with the receptor, peptide at 1 μM, % of the response to 1 μM sTrica-SK(5–13) in assay [1] came out at 43.4%; in assay [2], 33.4%.

B3: 1567[φ1]wp-5 (peptide)
peptide: SPVD[sY]DRPIMAF-NH2
modifications: N-terminus assumed
SMILES: CC[C@H](C)[C@H](NC(=O)[C@@H]1CCCN1C(=O)[C@H](CCCNC(=N)N)NC(=O)[C@H](CC(=O)O)NC(=O)[C@H](Cc1ccc(OS(=O)(=O)O)cc1)NC(=O)[C@H](CC(=O)O)NC(=O)[C@@H](NC(=O)[C@@H]1CCCN1C(=O)[C@@H](N)CO)C(C)C)C(=O)N[C@@H](CCSC)C(=O)N[C@@H](C)C(=O)N[C@@H](Cc1ccccc1)C(N)=O
With B3, the results for the aequorin bioluminescence in CHO-WTA11 cells transfected with the receptor, peptide at 1 μM, % of the response to 1 μM sTrica-SK(5–13) in assay [1] and in assay [2] were 23.6% and 33.7%, respectively.
